The record followed here is US20240376151A1, “STAPLED PEPTIDES AND METHODS THEREOF” (FOG PHARMACEUTICALS, INC., priority 2022, published 2024).

The experiment has as its target T1, beta-catenin (Homo sapiens, UniProt P35222).
T1 construct: made in house; host or cells: E. coli BL21 (DE3) pLysS
T1 sequence (P35222 134-665): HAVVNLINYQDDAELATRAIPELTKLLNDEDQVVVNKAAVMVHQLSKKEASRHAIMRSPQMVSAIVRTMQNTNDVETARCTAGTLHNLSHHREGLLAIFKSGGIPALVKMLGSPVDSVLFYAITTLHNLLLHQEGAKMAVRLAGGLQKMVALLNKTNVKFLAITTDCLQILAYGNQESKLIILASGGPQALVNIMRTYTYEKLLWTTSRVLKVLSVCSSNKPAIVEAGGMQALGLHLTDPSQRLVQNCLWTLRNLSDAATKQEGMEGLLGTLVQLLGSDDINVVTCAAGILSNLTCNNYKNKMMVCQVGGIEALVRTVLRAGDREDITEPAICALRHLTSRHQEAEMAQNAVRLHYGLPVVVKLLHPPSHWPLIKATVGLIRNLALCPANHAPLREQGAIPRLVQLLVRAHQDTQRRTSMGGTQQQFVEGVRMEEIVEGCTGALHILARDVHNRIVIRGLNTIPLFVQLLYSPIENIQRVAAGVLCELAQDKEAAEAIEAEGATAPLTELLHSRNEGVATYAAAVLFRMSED
The experiment in a line: Phage Library Screening with NGS, beta-catenin. The class given is binding. The following applies: for Target Concentration 10 (phage screen NGS readout): beta-catenin target concentration 10; for Target Concentration 10 (phage screen NGS readout) / Target Concentration 30 (phage screen NGS readout) / Target Concentration 100 (phage screen NGS readout) / Target Concentration 300 (phage screen NGS readout): no competitor; for Target Concentration 30 (phage screen NGS readout): beta-catenin target concentration 30; for Target Concentration 100 (phage screen NGS readout): beta-catenin target concentration 100; for Target Concentration 300 (phage screen NGS readout): beta-catenin target concentration 300; for Target Concentration 1000 (phage screen NGS readout): beta-catenin target concentration 1000.

In the case of DPAMSQCNWAAVHCQLL, the “Target Concentration 10 (phage screen NGS readout)” value is recorded as 6, the “Target Concentration 30 (phage screen NGS readout)” value is 6, the “Target Concentration 100 (phage screen NGS readout)” value worked out at 6 and the “Target Concentration 300 (phage screen NGS readout)” value turned out to be 13. Also, for the setting “first column”, the “Target Concentration BLANK (phage screen NGS readout)” value (shortened to “Target Concentration BLANK”) was 0. The “Target Concentration BLANK” value (fourth column) is recorded as 0. Further, the “Target Concentration BLANK” value (second column) was 0. Under “third column”, the “Target Concentration BLANK” value is 0. The “Target Concentration 1000 (phage screen NGS readout)” value (first 1000 column) stood at 15. Besides, the “Target Concentration 1000 (phage screen NGS readout)” value (second 1000 column) worked out at 23.
Consider DPAMVTCYEAAYVCQYF, for which the “Target Concentration 10 (phage screen NGS readout)” value amounted to 0, the “Target Concentration 30 (phage screen NGS readout)” value turned out to be 0, the “Target Concentration 100 (phage screen NGS readout)” value is on record as 0 and the “Target Concentration 300 (phage screen NGS readout)” value turned out to be 0. The “Target Concentration BLANK” value (first column) came out at 0. For the same sequence, under “fourth column”, the “Target Concentration BLANK” value turned out to be 0. Under “second column”, the “Target Concentration BLANK” value is listed as 0. Moreover, the “Target Concentration BLANK” value (third column) is given as 0. Also, the “Target Concentration 1000 (phage screen NGS readout)” value (first 1000 column) turned out to be 7. In addition, the “Target Concentration 1000 (phage screen NGS readout)” value (second 1000 column) was 0.
With DPAMWICEHAALNCEIR, the “Target Concentration 10 (phage screen NGS readout)” value turned out to be 2, the “Target Concentration 30 (phage screen NGS readout)” value was 6, the “Target Concentration 100 (phage screen NGS readout)” value is given as 46 and the “Target Concentration 300 (phage screen NGS readout)” value is listed as 158. Further, for the setting “first column”, the “Target Concentration BLANK” value came to 0. For the setting “fourth column”, the “Target Concentration BLANK” value is on record as 0. For the same sequence, under “second column”, the “Target Concentration BLANK” value amounted to 0. The “Target Concentration BLANK” value (third column) was determined as 0. Also, the “Target Concentration 1000 (phage screen NGS readout)” value (first 1000 column) turned out to be 145. Moreover, the “Target Concentration 1000 (phage screen NGS readout)” value (second 1000 column) is 152.
For DPANVECEWAAIHCSLV, the “Target Concentration 10 (phage screen NGS readout)” value was found to be 13, the “Target Concentration 30 (phage screen NGS readout)” value is recorded as 2, the “Target Concentration 100 (phage screen NGS readout)” value is listed as 19 and the “Target Concentration 300 (phage screen NGS readout)” value is 158. The “Target Concentration BLANK” value (first column) is 0. For the same sequence, the “Target Concentration BLANK” value (fourth column) turned out to be 0. Besides, the “Target Concentration BLANK” value (second column) came out at 0. Also, the “Target Concentration BLANK” value (third column) was found to be 0. Besides, the “Target Concentration 1000 (phage screen NGS readout)” value (first 1000 column) turned out to be 164. The “Target Concentration 1000 (phage screen NGS readout)” value (second 1000 column) was determined as 187.
DPAQFYCEHAALLCRWE: the “Target Concentration 10 (phage screen NGS readout)” value was 0, the “Target Concentration 30 (phage screen NGS readout)” value worked out at 0, the “Target Concentration 100 (phage screen NGS readout)” value was 5 and the “Target Concentration 300 (phage screen NGS readout)” value amounted to 11. For the same sequence, under “first column”, the “Target Concentration BLANK” value is reported as 0. Besides, under “fourth column”, the “Target Concentration BLANK” value is on record as 0. In addition, under “second column”, the “Target Concentration BLANK” value is given as 0. For the same sequence, the “Target Concentration BLANK” value (third column) was 0. In addition, under “first 1000 column”, the “Target Concentration 1000 (phage screen NGS readout)” value is given as 15. Moreover, for the setting “second 1000 column”, the “Target Concentration 1000 (phage screen NGS readout)” value came to 11.
DPAQNICEWAALHCDLI: the “Target Concentration 10 (phage screen NGS readout)” value was 0, the “Target Concentration 30 (phage screen NGS readout)” value is reported as 13, the “Target Concentration 100 (phage screen NGS readout)” value was determined as 37 and the “Target Concentration 300 (phage screen NGS readout)” value is reported as 109. The “Target Concentration BLANK” value (first column) amounted to 0. Further, the “Target Concentration BLANK” value (fourth column) was 0. In addition, the “Target Concentration BLANK” value (second column) stood at 1. Under “third column”, the “Target Concentration BLANK” value was found to be 0. Further, where the note is “first 1000 column”, the “Target Concentration 1000 (phage screen NGS readout)” value was 177. In addition, where the note is “second 1000 column”, the “Target Concentration 1000 (phage screen NGS readout)” value was 82.
Consider DPAQQDCTLAAHVCRVF, for which the “Target Concentration 10 (phage screen NGS readout)” value came to 0, the “Target Concentration 30 (phage screen NGS readout)” value came out at 0, the “Target Concentration 100 (phage screen NGS readout)” value was determined as 19 and the “Target Concentration 300 (phage screen NGS readout)” value is given as 21. Moreover, the “Target Concentration BLANK” value (first column) stood at 0. Besides, where the note is “fourth column”, the “Target Concentration BLANK” value was determined as 0. In addition, under “second column”, the “Target Concentration BLANK” value was 0. The “Target Concentration BLANK” value (third column) came to 0. Besides, under “first 1000 column”, the “Target Concentration 1000 (phage screen NGS readout)” value was found to be 70. For the same sequence, the “Target Concentration 1000 (phage screen NGS readout)” value (second 1000 column) amounted to 11.
As for DPAQSDCDWAAEHCNLI, the “Target Concentration 10 (phage screen NGS readout)” value was determined as 0, the “Target Concentration 30 (phage screen NGS readout)” value came to 1, the “Target Concentration 100 (phage screen NGS readout)” value came to 0 and the “Target Concentration 300 (phage screen NGS readout)” value is given as 23. For the same sequence, the “Target Concentration BLANK” value (first column) was found to be 0. The “Target Concentration BLANK” value (fourth column) came out at 0. Further, the “Target Concentration BLANK” value (second column) is 0. Moreover, for the setting “third column”, the “Target Concentration BLANK” value is recorded as 0. Further, for the setting “first 1000 column”, the “Target Concentration 1000 (phage screen NGS readout)” value is given as 9. For the same sequence, the “Target Concentration 1000 (phage screen NGS readout)” value (second 1000 column) turned out to be 57.
Regarding DPAQWACEHAALLCSMD, the “Target Concentration 10 (phage screen NGS readout)” value was 6, the “Target Concentration 30 (phage screen NGS readout)” value is on record as 35, the “Target Concentration 100 (phage screen NGS readout)” value stood at 226 and the “Target Concentration 300 (phage screen NGS readout)” value came to 419. Also, where the note is “first column”, the “Target Concentration BLANK” value is reported as 0. Further, for the setting “fourth column”, the “Target Concentration BLANK” value amounted to 0. For the setting “second column”, the “Target Concentration BLANK” value is 1. For the setting “third column”, the “Target Concentration BLANK” value came out at 0. The “Target Concentration 1000 (phage screen NGS readout)” value (first 1000 column) is reported as 326. In addition, the “Target Concentration 1000 (phage screen NGS readout)” value (second 1000 column) is on record as 432.
For DPARHECILAAHICEWE, the “Target Concentration 10 (phage screen NGS readout)” value was found to be 41, the “Target Concentration 30 (phage screen NGS readout)” value is 151, the “Target Concentration 100 (phage screen NGS readout)” value came out at 612 and the “Target Concentration 300 (phage screen NGS readout)” value is recorded as 1704. In addition, the “Target Concentration BLANK” value (first column) was determined as 1. Moreover, for the setting “fourth column”, the “Target Concentration BLANK” value is on record as 0. For the same sequence, the “Target Concentration BLANK” value (second column) is given as 2. In addition, where the note is “third column”, the “Target Concentration BLANK” value was 2. Also, the “Target Concentration 1000 (phage screen NGS readout)” value (first 1000 column) is recorded as 1683. For the same sequence, the “Target Concentration 1000 (phage screen NGS readout)” value (second 1000 column) is 1509.
Turning to DPARMTCYEAAFRCQYY, the “Target Concentration 10 (phage screen NGS readout)” value was found to be 0, the “Target Concentration 30 (phage screen NGS readout)” value is reported as 2, the “Target Concentration 100 (phage screen NGS readout)” value amounted to 2 and the “Target Concentration 300 (phage screen NGS readout)” value is on record as 3. Further, the “Target Concentration BLANK” value (first column) worked out at 0. Also, where the note is “fourth column”, the “Target Concentration BLANK” value was found to be 0. Moreover, under “second column”, the “Target Concentration BLANK” value was 0. Besides, the “Target Concentration BLANK” value (third column) was determined as 0. Further, the “Target Concentration 1000 (phage screen NGS readout)” value (first 1000 column) is listed as 11. In addition, the “Target Concentration 1000 (phage screen NGS readout)” value (second 1000 column) is listed as 9.
On to DPASWDCDHAALLCTLD, for which the “Target Concentration 10 (phage screen NGS readout)” value worked out at 3, the “Target Concentration 30 (phage screen NGS readout)” value is given as 6, the “Target Concentration 100 (phage screen NGS readout)” value was 86 and the “Target Concentration 300 (phage screen NGS readout)” value is on record as 257. Further, the “Target Concentration BLANK” value (first column) was 0. Under “fourth column”, the “Target Concentration BLANK” value is on record as 1. The “Target Concentration BLANK” value (second column) amounted to 0. Besides, the “Target Concentration BLANK” value (third column) was found to be 0. Further, the “Target Concentration 1000 (phage screen NGS readout)” value (first 1000 column) turned out to be 283. For the same sequence, the “Target Concentration 1000 (phage screen NGS readout)” value (second 1000 column) came out at 238.
In the case of DPASWRCEHAALNCQID, the “Target Concentration 10 (phage screen NGS readout)” value is reported as 0, the “Target Concentration 30 (phage screen NGS readout)” value is on record as 6, the “Target Concentration 100 (phage screen NGS readout)” value was determined as 20 and the “Target Concentration 300 (phage screen NGS readout)” value turned out to be 18. Besides, the “Target Concentration BLANK” value (first column) was found to be 0. The “Target Concentration BLANK” value (fourth column) turned out to be 0. For the same sequence, the “Target Concentration BLANK” value (second column) was 0. Moreover, the “Target Concentration BLANK” value (third column) worked out at 0. For the same sequence, for the setting “first 1000 column”, the “Target Concentration 1000 (phage screen NGS readout)” value is 21. Besides, under “second 1000 column”, the “Target Concentration 1000 (phage screen NGS readout)” value is on record as 57.
As for DPATIRCYEAAFMCQYW, the “Target Concentration 10 (phage screen NGS readout)” value worked out at 0, the “Target Concentration 30 (phage screen NGS readout)” value is on record as 0, the “Target Concentration 100 (phage screen NGS readout)” value was found to be 3 and the “Target Concentration 300 (phage screen NGS readout)” value was 34. Under “first column”, the “Target Concentration BLANK” value came out at 0. Moreover, the “Target Concentration BLANK” value (fourth column) is listed as 0. Besides, the “Target Concentration BLANK” value (second column) is reported as 0. In addition, for the setting “third column”, the “Target Concentration BLANK” value stood at 0. Besides, where the note is “first 1000 column”, the “Target Concentration 1000 (phage screen NGS readout)” value is 21. For the same sequence, under “second 1000 column”, the “Target Concentration 1000 (phage screen NGS readout)” value amounted to 38.
